Experimental data reported in IntAct's records for PubMed 9756887.

B1: Focal adhesion kinase 1 (Homo sapiens), Q05397 (parent)
chain: MAAAYLDPNLNHTPNSSTKTHLGTGMERSPGAMERVLKVFHYFESNSEPTTWASIIRHGDATDVRGIIQKIVDSHKVKHVACYGFRLSHLRSEEVHWLHVDMGVSSVREKYELAHPPEEWKYELRIRYLPKGFLNQFTEDKPTLNFFYQQVKSDYMLEIADQVDQEIALKLGCLEIRRSYWEMRGNALEKKSNYEVLEKDVGLKRFFPKSLLDSVKAKTLRKLIQQTFRQFANLNREESILKFFEILSPVYRFDKECFKCALGSSWIISVELAIGPEEGISYLTDKGCNPTHLADFTQVQTIQYSNSEDKDRKGMLQLKIAGAPEPLTVTAPSLTIAENMADLIDGYCRLVNGTSQSFIIRPQKEGERALPSIPKLANSEKQGMRTHAVSVSETDDYAEIIDEEDTYTMPSTRDYEIQRERIELGRCIGEGQFGDVHQGIYMSPENPALAVAIKTCKNCTSDSVREKFLQEALTMRQFDHPHIVKLIGVITENPVWIIMELCTLGELRSFLQVRKYSLDLASLILYAYQLSTALAYLESKRFVHRDIAARNVLVSSNDCVKLGDFGLSRYMEDSTYYKASKGKLPIKWMAPESINFRRFTSASDVWMFGVCMWEILMHGVKPFQGVKNNDVIGRIENGERLPMPPNCPPTLYSLMTKCWAYDPSRRPRFTELKAQLSTILEEEKAQQEERMRMESRRQATVSWDSGGSDEAPPKPSRPGYPSPRSSEGFYPSPQHMVQTNHYQVSGYPGSHGITAMAGSIYPGQASLLDQTDSWNHRPQEIAMWQPNVEDSTVLDLRGIGQVLPTHLMEERLIRQQQEMEEDQRWLEKEERFLKPDVRLSRGSIDREDGSLQGPIGNQHIYQPVGKPDPAAPPKKPPRPGAPGHLGSLASLSSPADSYNEGVKLQPQEISPPPTANLDRSNDKVYENVTGLVKAVIEMSSKIQPAPPEEYVPMVKEVGLALRTLLATVDETIPLLPASTHREIEMAQKLLNSDLGELINKMKLAQQYVMTSLQQEYKKQMLTAAHALAVDAKNLLDVIDQARLKMLGQTRPH

Experiments:
[1] = variants of: B1; details: with paxi_human PXN
[2] = variants of: B1; details: with tgfi1_mouse Tgfb1i1, Q62219
tgfi1_mouse Tgfb1i1, Q62219, sequence (Q62219 whole entry): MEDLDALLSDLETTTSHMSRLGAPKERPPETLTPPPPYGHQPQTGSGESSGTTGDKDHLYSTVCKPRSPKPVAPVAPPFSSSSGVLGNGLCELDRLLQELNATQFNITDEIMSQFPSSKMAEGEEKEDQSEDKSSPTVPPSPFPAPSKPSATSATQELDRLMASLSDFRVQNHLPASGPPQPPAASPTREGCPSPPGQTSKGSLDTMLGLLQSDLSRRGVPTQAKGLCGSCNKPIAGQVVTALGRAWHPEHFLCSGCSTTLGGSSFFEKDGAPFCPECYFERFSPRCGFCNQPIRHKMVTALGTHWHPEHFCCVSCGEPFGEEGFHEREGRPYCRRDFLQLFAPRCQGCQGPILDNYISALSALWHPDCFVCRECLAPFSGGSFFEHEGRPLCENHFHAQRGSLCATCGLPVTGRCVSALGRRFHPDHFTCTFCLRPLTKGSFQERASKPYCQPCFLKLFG

Row | effect of a mutation on the interaction [1] | effect of a mutation on the interaction [2] | Variant
1 | disrupting interaction | disrupting interaction | L1034S
2 | disrupting interaction | disrupting interaction | V928G
